Non-standard residues stand in square brackets, D forms with d. *: point of attachment. Pyrrolidinyl(2S-CHPh2) = c1ccc(C(c2ccccc2)[C@@H]2CCCN2*)cc1; pS = N[C@@H](COP(=O)(O)O)C(=O)O
Key:
[1] = target: T1, modified Tau peptide 3.2a pS214 epitope (Homo sapiens, UniProt P10636, phosphoS214, N-acetyl, C-terminal L-Thr-(S)-2-benzhydrylpyrrolidine); assay: ITC
[2] = target: T2, modified Tau peptide 4.2f-I pS214 epitope (Homo sapiens, UniProt P10636, also: substituent position not given here); assay: ITC
T2 chain: Ac-SRTP[pS]LPG-{methoxy‑substituted benzhydrylpyrrolidine}

[3] = target: T3, modified Tau peptide 3.2b pS214 epitope (Homo sapiens, UniProt P10636, phosphoS214, N-acetyl, C-terminal Gly-(S)-2-benzhydrylpyrrolidine); assay: ITC
[4] = target: T4, modified Tau peptide 4.2d-II pS214 epitope (Homo sapiens, UniProt P10636, also: regioisomer, substituent position not given here); assay: ITC
T4 chain: Ac-SRTP[pS]LPG-{(methoxyethoxy)‑substituted benzhydrylpyrrolidine}

[5] = target: T5, modified Tau peptide 3.2d pS214 epitope (Homo sapiens, UniProt P10636, phosphoS214, N-acetyl, C-terminal D-Ala-(S)-2-benzhydrylpyrrolidine); assay: ITC
[6] = target: T6, modified Tau peptide 3.2f pS214 epitope (Homo sapiens, UniProt P10636, SMILES …); assay: ITC
T6 chain: Ac-SRTP[pS]LP[dV]-{Pyrrolidinyl(2S-CHPh2)}

[7] = target: T7, modified Tau peptide 3.2c pS214 epitope (Homo sapiens, UniProt P10636, phosphoS214, N-acetyl, C-terminal L-Ala-(S)-2-benzhydrylpyrrolidine); assay: ITC
[8] = target: T8, modified Tau peptide 3.2e pS214 epitope (Homo sapiens, UniProt P10636, SMILES …); assay: FP competition
T8 chain: Ac-SRTP[pS]LPV-{Pyrrolidinyl(2S-CHPh2)}

[9] = target: T1, modified Tau peptide 3.2a pS214 epitope; assay: FP competition
[10] = target: T3, modified Tau peptide 3.2b pS214 epitope; assay: FP competition
[11] = target: T5, modified Tau peptide 3.2d pS214 epitope; assay: FP competition
[12] = target: T6, modified Tau peptide 3.2f pS214 epitope; assay: FP competition
[13] = target: T7, modified Tau peptide 3.2c pS214 epitope; assay: FP competition

B1: 14-3-3ζ (protein)
chain: MDKNELVQKAKLAEQAERYDDMAACMKSVTEQGAELSNEERNLLSVAYKNVVGARRSSWRVVSSIEQKTEGAEKKQQMAREYREKIETELRDICNDVLSLLEKFLIPNASQAESKVFYLKMKGDYYRYLAEVAAGDDKKGIVDQSQQAYQEAFEISKKEMQPTHPIRLGLALNFSVFYYEILNSPEKACSLAKTAFDEAIAELDTLSEESYKDSTLIMQLLRDNLTLWTSDTQGDEAEAGEGGEN
Kd [1]: 5.4 µM | Kd [2]: 4.7 µM | Kd [3]: 5.6 µM | Kd [4]: 20.6 µM | Kd [5]: 3 µM | Kd [6]: 3.4 µM | Kd [7]: 3.3 µM | IC50 [8]: 6.2 µM | IC50 [9]: 8.1 µM | IC50 [10]: 5.9 µM | IC50 [11]: 6.2 µM | IC50 [12]: 7.6 µM | IC50 [13]: 5.3 µM

— publication PMC6256345 (2018)
